Source: publication PMC2865556 (Integrative biology : quantitative biosciences from nano to …, 2009)

Molecular target: full-length t-SNARE heterodimer (syntaxin 1A and SNAP-25) (UniProt P32851 1-288; P60879 1-206)
Assay: AFM single-molecule force spectroscopy

Chain of full-length t-SNARE heterodimer (syntaxin 1A and SNAP-25) (P32851 whole entry, chain 1 of 2): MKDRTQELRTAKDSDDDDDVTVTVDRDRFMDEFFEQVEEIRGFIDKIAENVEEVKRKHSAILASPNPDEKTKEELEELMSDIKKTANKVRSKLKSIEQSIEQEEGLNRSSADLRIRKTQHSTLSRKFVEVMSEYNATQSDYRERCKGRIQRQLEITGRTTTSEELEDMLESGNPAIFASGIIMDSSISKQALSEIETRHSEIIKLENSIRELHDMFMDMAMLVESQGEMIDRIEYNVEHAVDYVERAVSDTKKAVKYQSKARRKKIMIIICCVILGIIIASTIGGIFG
Chain of full-length t-SNARE heterodimer (syntaxin 1A and SNAP-25) (P60879 whole entry, chain 2 of 2): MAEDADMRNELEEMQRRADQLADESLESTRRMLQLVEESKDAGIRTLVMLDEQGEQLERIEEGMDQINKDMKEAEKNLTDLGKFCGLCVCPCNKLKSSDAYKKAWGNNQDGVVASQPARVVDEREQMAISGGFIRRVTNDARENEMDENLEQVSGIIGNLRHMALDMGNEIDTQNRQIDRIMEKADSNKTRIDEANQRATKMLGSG

**Q.** How did the “dissociation rate of the inner barrier (kβ1^o)” value turn out when FETSAAKLKRKYWWKNLKMMIILGVICAIILIIIIVYFST (domain or fragment) [VAMP 2 in v-SNARE bilayers after cleavage by BoNT/B (remaining membrane-anchored portion)] was run?
**A.** 20.1 s⁻¹

**Q.** And the “dissociation rate of the outer barrier (kβ2^o)” value?
**A.** 0.46 s⁻¹
